The test system of assay [1] is GFP-14-3-3β and its binding proteins. The experiment in a line: GFP-14-3-3β co-IP with LC-MS/MS label-free quantification, untreated versus PP1c-treated. Also noted: species or system human.
The subject of assay [2] is GFP-14-3-3β. The experiment in a line: GFP-14-3-3β co-IP with LC-MS/MS, untreated GFP-14-3-3β versus GFP control (14-3-3 interactome). In kind it is binding, human.
Setting [3] is: pairwise comparison PP1 vs untreated.
Where [4] appears, read: pairwise comparison untreated vs GFP.

B1: MSN (protein, UniProt P26038 2-577, looked up)
Moesin: PKTISVRVTTMDAELEFAIQPNTTGKQLFDQVVKTIGLREVWFFGLQYQDTKGFSTWLKLNKKVTAQDVRKESPLLFKFRAKFYPEDVSEELIQDITQRLFFLQVKEGILNDDIYCPPETAVLLASYAVQSKYGDFNKEVHKSGYLAGDKLLPQRVLEQHKLNKDQWEERIQVWHEEHRGMLREDAVLEYLKIAQDLEMYGVNYFSIKNKKGSELWLGVDALGLNIYEQNDRLTPKIGFPWSEIRNISFNDKKFVIKPIDKKAPDFVFYAPRLRINKRILALCMGNHELYMRRRKPDTIEVQQMKAQAREEKHQKQMERAMLENEKKKREMAEKEKEKIEREKEELMERLKQIEEQTKKAQQELEEQTRRALELEQERKRAQSEAEKLAKERQEAEEAKEALLQASRDQKKTQEQLALEMAELTARISQLEMARQKKESEAVEWQQKAQMVQEDLEKTRAELKTAMSTPHVAEPAENEQDEQDENGAEASADLRADAMAKDRSEEERTTEAEKNERVQKHLKALTSELANARDESKKTANDMIHAENMRLGRDKYKTLRQIRQGNTKQRIDEFESM
In the case of B1, in assay [1] (setting [3]), the “Difference (log2), PP1 vs untreated” value stood at 0.2864 log2. Moreover, the “Difference (log2), untreated vs GFP” value in assay [2] (setting [4]) turned out to be 0.7577 log2.

B2: ACADM (protein, UniProt P11310 26-421, looked up)
Medium-chain specific …: KANRQREPGLGFSFEFTEQQKEFQATARKFAREEIIPVAAEYDKTGEYPVPLIRRAWELGLMNTHIPENCGGLGLGTFDACLISEELAYGCTGVQTAIEGNSLGQMPIIIAGNDQQKKKYLGRMTEEPLMCAYCVTEPGAGSDVAGIKTKAEKKGDEYIINGQKMWITNGGKANWYFLLARSDPDPKAPANKAFTGFIVEADTPGIQIGRKELNMGQRCSDTRGIVFEDVKVPKENVLIGDGAGFKVAMGAFDKTRPVVAAGAVGLAQRALDEATKYALERKTFGKLLVEHQAISFMLAEMAMKVELARMSYQRAAWEVDSGRRNTYYASIAKAFAGDIANQLATDAVQILGGNGFNTEYPVEKLMRDAKIYQIYEGTSQIQRLIVAREHIDKYKN
For the molecule B2, the “Difference (log2), PP1 vs untreated” value in assay [1] (log2 difference, pairwise comparison PP1 vs untreated, label-free quantification, 3 replicates each) was 2.074. For the same molecule, the “Difference (log2), untreated vs GFP” value in assay [2] (log2 difference, pairwise comparison untreated vs GFP, label-free quantification, 3 replicates each) was -2.884.

B3: RARS (protein, UniProt P54136 1-660, looked up)
Arginine--tRNA ligase, …: MDVLVSECSARLLQQEEEIKSLTAEIDRLKNCGCLGASPNLEQLQEENLKLKYRLNILRKSLQAERNKPTKNMINIISRLQEVFGHAIKAAYPDLENPPLLVTPSQQAKFGDYQCNSAMGISQMLKTKEQKVNPREIAENITKHLPDNECIEKVEIAGPGFINVHLRKDFVSEQLTSLLVNGVQLPALGENKKVIVDFSSPNIAKEMHVGHLRSTIIGESISRLFEFAGYDVLRLNHVGDWGTQFGMLIAHLQDKFPDYLTVSPPIGDLQVFYKESKKRFDTEEEFKKRAYQCVVLLQGKNPDITKAWKLICDVSRQELNKIYDALDVSLIERGESFYQDRMNDIVKEFEDRGFVQVDDGRKIVFVPGCSIPLTIVKSDGGYTYDTSDLAAIKQRLFEEKADMIIYVVDNGQSVHFQTIFAAAQMIGWYDPKVTRVFHAGFGVVLGEDKKKFKTRSGETVRLMDLLGEGLKRSMDKLKEKERDKVLTAEELNAAQTSVAYGCIKYADLSHNRLNDYIFSFDKMLDDRGNTAAYLLYAFTRIRSIARLANIDEEMLQKAARETKILLDHEKEWKLGRCILRFPEILQKILDDLFLHTLCDYIYELATAFTEFYDSCYCVEKDRQTGKILKVNMWRMLLCEAVAAVMAKGFDILGIKPVQRM
Regarding B3, in assay [1] (setting [3]), the “Difference (log2), PP1 vs untreated” value turned out to be 0.2613 log2. Further, the “Difference (log2), untreated vs GFP” value in assay [2] (setting [4]) is reported as -0.5854 log2.

B4: ATP5O (protein, UniProt P48047 24-213, looked up)
ATP synthase peripheral stalk …: FAKLVRPPVQVYGIEGRYATALYSAASKQNKLEQVEKELLRVAQILKEPKVAASVLNPYVKRSIKVKSLNDITAKERFSPLTTNLINLLAENGRLSNTQGVVSAFSTMMSVHRGEVPCTVTSASPLEEATLSELKTVLKSFLSQGQVLKLEAKTDPSILGGMIVRIGEKYVDMSVKTKIQKLGRAMREIV
For the molecule B4, the “Difference (log2), PP1 vs untreated” value in assay [1] (setting [3]) stood at 0.2696 log2. In addition, in assay [2] (setting [4]), the “Difference (log2), untreated vs GFP” value is 0.8888 log2.

B5: UPF1 (protein, UniProt Q92900 1-1129, looked up)
Regulator of nonsense …: MSVEAYGPSSQTLTFLDTEEAELLGADTQGSEFEFTDFTLPSQTQTPPGGPGGPGGGGAGGPGGAGAGAAAGQLDAQVGPEGILQNGAVDDSVAKTSQLLAELNFEEDEEDTYYTKDLPIHACSYCGIHDPACVVYCNTSKKWFCNGRGNTSGSHIVNHLVRAKCKEVTLHKDGPLGETVLECYNCGCRNVFLLGFIPAKADSVVVLLCRQPCASQSSLKDINWDSSQWQPLIQDRCFLSWLVKIPSEQEQLRARQITAQQINKLEELWKENPSATLEDLEKPGVDEEPQHVLLRYEDAYQYQNIFGPLVKLEADYDKKLKESQTQDNITVRWDLGLNKKRIAYFTLPKTDSGNEDLVIIWLRDMRLMQGDEICLRYKGDLAPLWKGIGHVIKVPDNYGDEIAIELRSSVGAPVEVTHNFQVDFVWKSTSFDRMQSALKTFAVDETSVSGYIYHKLLGHEVEDVIIKCQLPKRFTAQGLPDLNHSQVYAVKTVLQRPLSLIQGPPGTGKTVTSATIVYHLARQGNGPVLVCAPSNIAVDQLTEKIHQTGLKVVRLCAKSREAIDSPVSFLALHNQIRNMDSMPELQKLQQLKDETGELSSADEKRYRALKRTAERELLMNADVICCTCVGAGDPRLAKMQFRSILIDESTQATEPECMVPVVLGAKQLILVGDHCQLGPVVMCKKAAKAGLSQSLFERLVVLGIRPIRLQVQYRMHPALSAFPSNIFYEGSLQNGVTAADRVKKGFDFQWPQPDKPMFFYVTQGQEEIASSGTSYLNRTEAANVEKITTKLLKAGAKPDQIGIITPYEGQRSYLVQYMQFSGSLHTKLYQEVEIASVDAFQGREKDFIILSCVRANEHQGIGFLNDPRRLNVALTRARYGVIIVGNPKALSKQPLWNHLLNYYKEQKVLVEGPLNNLRESLMQFSKPRKLVNTINPGARFMTTAMYDAREAIIPGSVYDRSSQGRPSSMYFQTHDQIGMISAGPSHVAAMNIPIPFNLVMPPMPPPGYFGQANGPAAGRGTPKGKTGRGGRQKNRFGLPGPSQTNLPNSQASQDVASQPFSQGALTQGYISMSQPSQMSQPGLSQPELSQDSYLGDEFKSQIDVALSQDSTYQGERAYQHGGVTGLSQY
B5: the “Difference (log2), PP1 vs untreated” value in assay [1] (setting [3]) came out at 0.3073 log2. The “Difference (log2), untreated vs GFP” value in assay [2] (setting [4]) amounted to 0.2927 log2.

B6: HLTF (protein, UniProt Q14527 1-1009, looked up)
Helicase-like transcription …: MSWMFKRDPVWKYLQTVQYGVHGNFPRLSYPTFFPRFEFQDVIPPDDFLTSDEEVDSVLFGSLRGHVVGLRYYTGVVNNNEMVALQRDPNNPYDKNAIKVNNVNGNQVGHLKKELAGALAYIMDNKLAQIEGVVPFGANNAFTMPLHMTFWGKEENRKAVSDQLKKHGFKLGPAPKTLGFNLESGWGSGRAGPSYSMPVHAAVQMTTEQLKTEFDKLFEDLKEDDKTHEMEPAEAIETPLLPHQKQALAWMVSRENSKELPPFWEQRNDLYYNTITNFSEKDRPENVHGGILADDMGLGKTLTAIAVILTNFHDGRPLPIERVKKNLLKKEYNVNDDSMKLGGNNTSEKADGLSKDASRCSEQPSISDIKEKSKFRMSELSSSRPKRRKTAVQYIESSDSEEIETSELPQKMKGKLKNVQSETKGRAKAGSSKVIEDVAFACALTSSVPTTKKKMLKKGACAVEGSKKTDVEERPRTTLIICPLSVLSNWIDQFGQHIKSDVHLNFYVYYGPDRIREPALLSKQDIVLTTYNILTHDYGTKGDSPLHSIRWLRVILDEGHAIRNPNAQQTKAVLDLESERRWVLTGTPIQNSLKDLWSLLSFLKLKPFIDREWWHRTIQRPVTMGDEGGLRRLQSLIKNITLRRTKTSKIKGKPVLELPERKVFIQHITLSDEERKIYQSVKNEGRATIGRYFNEGTVLAHYADVLGLLLRLRQICCHTYLLTNAVSSNGPSGNDTPEELRKKLIRKMKLILSSGSDEECAICLDSLTVPVITHCAHVFCKPCICQVIQNEQPHAKCPLCRNDIHEDNLLECPPEELARDSEKKSDMEWTSSSKINALMHALTDLRKKNPNIKSLVVSQFTTFLSLIEIPLKASGFVFTRLDGSMAQKKRVESIQCFQNTEAGSPTIMLLSLKAGGVGLNLSAASRVFLMDPAWNPAAEDQCFDRCHRLGQKQEVIITKFIVKDSVEENMLKIQNKKRELAAGAFGTKKPNADEMKQAKINEIRTLIDL
Consider B6, for which the “Difference (log2), PP1 vs untreated” value in assay [1] (PP1 vs untreated, LFQ intensities, 3 replicates each) was determined as 0.3278 log2. Besides, the “Difference (log2), untreated vs GFP” value in assay [2] (untreated vs GFP, LFQ intensities, 3 replicates each) amounted to 1.079 log2.

These data come from publication PMC7367873, “Dissecting the sequence determinants for dephosphorylation by the catalytic subunits of phosphatases PP1 and PP2A” (Nature Communications, 2020).
